Assay results published in patent publication US20220251236A1 (Boehringer Ingelheim, published 2022).
Residue numbers refer to the chain shown, from its start.

How the values were obtained:
Human DLL3-His = target: T1, Human DLL3-His (human, UniProt Q9NYJ7 27-492); test: SPR (ProteOn XPR36), bispecific captured on protein A/G, DLL3 as analyte, Example 4A
T1 construct: also called huDLL3-His; hu DLL3
T1 sequence: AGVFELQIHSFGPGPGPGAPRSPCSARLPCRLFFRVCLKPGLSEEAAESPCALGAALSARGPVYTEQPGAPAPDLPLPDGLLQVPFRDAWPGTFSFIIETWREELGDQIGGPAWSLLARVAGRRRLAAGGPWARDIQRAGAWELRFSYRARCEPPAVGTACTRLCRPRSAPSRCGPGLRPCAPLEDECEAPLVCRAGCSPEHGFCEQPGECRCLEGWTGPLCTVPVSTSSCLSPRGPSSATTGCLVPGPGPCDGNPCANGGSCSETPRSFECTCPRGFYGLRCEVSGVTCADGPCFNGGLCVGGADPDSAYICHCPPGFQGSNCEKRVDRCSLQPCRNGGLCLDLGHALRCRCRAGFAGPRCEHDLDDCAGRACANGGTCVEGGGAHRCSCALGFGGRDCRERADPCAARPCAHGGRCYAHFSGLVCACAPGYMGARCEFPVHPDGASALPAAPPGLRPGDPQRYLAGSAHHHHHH
Experimental: (§1) The binding affinity of purified DLL3/CD3 bispecific constructs for recombinant human and cyno DLL3-ECD and Fc-fusion proteins of human and cyno CD3 εγ subunits was determined by Surface Plasmon Resonance (SPR), using a ProteOn XPR36 instrument (Bio-Rad). The running buffer and all dilutions (except where stated) were done in PBS-T-EDTA. The GLM sensor chip (Bio-Rad) was normalized and pre-conditioned as per the manufacturer's recommendations. The sensor chip was activated with equal mixture of EDC/s-NHS in the horizontal direction for 300 sec at a flow rate of 30 ul/min and immobilized with protein A/G (20 ug/ml in 10 mM acetate pH 4.5) in the horizontal direction for 300 sec at a flowrate of 30 ul/min resulting in ˜5000 RU of protein A/G on the surface. The sensor chip was deactivated with 1M ethanolamine HCl in the horizontal direction for 300 sec at a flowrate of 30 μl/min.
For binding kinetic determination to DLL3, bispecific molecules were captured individually on the protein A/G surface vertically for 250 sec at a flowrate of 25 μl/min. The baseline was stabilized by injecting PBS-T-EDTA for 60 sec at a flowrate of 40 μl/min horizontally. The analyte (hu DLL3 or cy DLL3) was injected horizontally over the captured antibody for 600 sec at a flowrate of 40 μl/min and a dissociation for 2700 sec.
(§2) The inter spot (interactions with sensor surface) and blank (PBS-T-EDTA) were subtracted from the raw data.

Cyno CD3 E+G HuFc-6xHis = target: T2, Cyno CD3 E+G HuFc-6xHis (cynomolgus monkey); test: SPR (ProteOn XPR36), CD3εγ-Fc amine-coupled, bispecific as analyte, equilibrium fit, Example 4A
T2 construct: also called cy CD3εγ-Fc; Recomb; Cyno CD3 εγ
Experimental: as §1
For binding kinetic determination to CD3, hu CD3εγ-Fc and cy CD3εγ-Fc (dissolved in pH 4.5 acetate) was immobilized directly onto the sensor surface through amine coupling for 140 sec at a flowrate of 30 μl/min vertically. The baseline was stabilized by injecting PBS-T-EDTA for 60 sec at a flowrate of 40 μl/min horizontally. The analyte (the bispecific molecule) was injected horizontally over the captured CD3εγ-Fc construct for 600 sec at a flowrate of 40 μl/min and a dissociation for 600 sec.
as §2

[1] = target: T3, human DLL3 (endogenous, on SCLC cell lines NCI-H82 and SHP77 and in SCLC tissue) (human, UniProt Q9NYJ7 27-618); test: flow cytometry titration on SHP77 cells, PE anti-human secondary, x-fold over background
T3 construct: whole, on cells; also called SCLC cell lines expressing DLL3
T3 sequence (looked up): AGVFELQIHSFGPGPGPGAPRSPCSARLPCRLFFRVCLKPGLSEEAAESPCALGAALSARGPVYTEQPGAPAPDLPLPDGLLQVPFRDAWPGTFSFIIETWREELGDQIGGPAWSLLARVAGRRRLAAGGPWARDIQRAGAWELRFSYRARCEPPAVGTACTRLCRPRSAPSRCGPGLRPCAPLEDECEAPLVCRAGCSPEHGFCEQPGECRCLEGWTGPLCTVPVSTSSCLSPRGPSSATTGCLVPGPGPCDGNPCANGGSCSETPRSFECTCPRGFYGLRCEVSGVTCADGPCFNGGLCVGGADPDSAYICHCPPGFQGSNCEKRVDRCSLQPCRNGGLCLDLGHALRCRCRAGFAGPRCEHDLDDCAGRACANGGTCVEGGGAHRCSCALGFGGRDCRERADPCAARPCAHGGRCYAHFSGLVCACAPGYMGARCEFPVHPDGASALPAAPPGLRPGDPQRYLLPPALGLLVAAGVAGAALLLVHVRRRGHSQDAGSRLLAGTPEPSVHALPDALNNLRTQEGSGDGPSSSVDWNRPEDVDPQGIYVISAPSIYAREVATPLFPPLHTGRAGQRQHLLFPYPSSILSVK
Source text: Cells (T cells or human SCLC cells) were stained with increasing concentrations of two-step purified DLL3/CD3 binding proteins with increasing concentrations in FACS buffer (PBS/0.5% BSA/0.05% sodium azide). Bound molecules were detected with PE-conjugated anti-human secondary antibody (Sigma-Aldrich, #P8047).

EGF4+5 = target: T4, EGF4+5; test: flow cytometry on HEK293 cells expressing the DLL3 subdomain construct, 1.6 nM binder, PE anti-human secondary, control: secondary antibody only
T4 construct: also called Hu DLL3 EGF4+5 on HEK293 cells
T4 membrane-anchored DLL3 subdomain construct: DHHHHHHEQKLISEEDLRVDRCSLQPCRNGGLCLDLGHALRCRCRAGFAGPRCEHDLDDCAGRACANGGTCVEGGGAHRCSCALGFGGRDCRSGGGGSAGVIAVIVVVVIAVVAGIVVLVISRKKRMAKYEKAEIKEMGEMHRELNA
Outline: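 Binders tested on HEK293 cells displaying the DLL3 subdomain construct; bound molecules detected by flow cytometry using PE-conjugated anti-human secondary antibody. Negative control: cells with secondary antibody only.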

T2 sequence (chain, as listed by the source limits assumed): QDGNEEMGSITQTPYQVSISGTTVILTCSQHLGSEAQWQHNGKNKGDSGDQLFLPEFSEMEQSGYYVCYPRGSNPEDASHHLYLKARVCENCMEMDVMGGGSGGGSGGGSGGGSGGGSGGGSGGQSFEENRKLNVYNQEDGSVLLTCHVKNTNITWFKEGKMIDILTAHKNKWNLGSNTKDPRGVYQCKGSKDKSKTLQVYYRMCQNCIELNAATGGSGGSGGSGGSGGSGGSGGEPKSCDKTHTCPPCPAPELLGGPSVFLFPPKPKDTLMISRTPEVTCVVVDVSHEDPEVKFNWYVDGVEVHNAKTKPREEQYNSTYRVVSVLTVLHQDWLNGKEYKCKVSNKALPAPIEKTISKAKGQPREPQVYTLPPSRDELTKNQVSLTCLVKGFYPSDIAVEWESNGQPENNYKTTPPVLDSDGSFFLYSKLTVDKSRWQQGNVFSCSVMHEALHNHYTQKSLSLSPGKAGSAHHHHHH

B1: DLL3#3/CD3#2 (bispecific antibody, human IgG1, kappa, lambda, L234A L235A)
chain 1: DIQMTQSPSAMSASVGDRVTITCRASQGISNYLVWFQQKPGKAPKRLIYAVSSLYSGVPSRFSGSGSGTEFTLTISSLQPEDFATYYCLQHDSYPYTFGQGTKLEIKRTVAAPSVFIFPPSDEQLKSGTASVVCLLNNFYPREAKVQWKVDNALQSGNSQESVTEQDSKDSTYSLSSTLTLSKADYEKHKVYACEVTHQGLSSPVTKSFNRGECGGGGSEGKSSGSGSESKSTEGKSSGSGSESKSTGGGGSQVQLVQSGAEVKKPGASVKVSCKASGYTFTSYYVHWVRQAPGQGLEWMVIINPGGGTTSYAQKFLGRVTMTRDTSTNTVYMELKSLRSEDTAVYYCARGEAVTGNYFYYGMDVWGQGTTVTVSSASTKGPSVFPLAPSSKSTSGGTAALGCLVKDYFPEPVTVSWNSGALTSGVHTFPAVLQSSGLYSLSSVVTVPSSSLGTQTYICNVNHKPSNTKVDKRVEPKSCDKTHTCPPCPAPEAAGGPSVFLFPPKPKDTLMISRTPEVTCVVVDVSHEDPEVKFNWYVDGVEVHNAKTKPREEQYNSTYRVVSVLTVLHQDWLNGKEYKCKVSNKALPAPIEKTISKAKGQPREPQVYTLPPSREEMTKNQVSLWCLVKGFYPSDIAVEWESNGQPENNYKTTPPVLDSDGSFFLYSKLTVDKSRWQQGNVFSCSVMHEALHNHYTQKSLSLSPG
chain 2: EAVVTQEPSLTVSPGGTVTLTCRSSTGAVTTSNYANWVQEKPGQLPRGLIGGTNKRAPWVPARFSGSLLGGKAALTLSGAQPEDEAEYFCALWYSNLWVFGGGTKLTVLGQPKAAPSVTLFPPSSEELQANKATLVCLISDFYPGAVKVAWKADGSPVNTGVETTTPSKQSNNKYAASSYLSLTPEQWKSHRSYSCQVTHEGSTVEKTVAPAECSGGGGSEGKSSGSGSESKSTEGKSSGSGSESKSTGGGGSEVQLVESGGGLVQPGGSLKLSCAASGFTFNTYAMNWVRQAPGKGLEWVARIRSKYINYATYYADSVKDRFTISRDDSKNTAYLQMNNLKTEDTAVYYCVRHGNFGNSYVSWFAYWGQGTLVTVSAASTKGPSVFPLAPSSKSTSGGTAALGCLVKDYFPEPVTVSWNSGALTSGVHTFPAVLQSSGLYSLSSVVTVPSSSLGTQTYICNVNHKPSNTKVDKRVEPKSCDKTHTCPPCPAPEAAGGPSVFLFPPKPKDTLMISRTPEVTCVVVDVSHEDPEVKFNWYVDGVEVHNAKTKPREEQYNSTYRVVSVLTVLHQDWLNGKEYKCKVSNKALPAPIEKTISKAKGQPREPQVYTLPPSREEMTKNQVSLSCAVKGFYPSDIAVEWESNGQPENNYKTTPPVLDSDGSFFLVSKLTVDKSRWQQGNVFSCSVMHEALHNRFTQKSLSLSPG
notes: Heterodimer of one DLL3 chain and one CD3 chain (scFab-Fc, knob-in-hole)
For B1, the Kd (Human DLL3-His) was < 0.01 nM and the Kd (Cyno CD3 E+G HuFc-6xHis) was 100 nM.

B2: DLL3#4/CD3#1 (bispecific antibody, human IgG1, kappa, lambda, L234A L235A)
chain 1: not shown
chain 2: B1 chain 2 with I309N
notes: as for B1
B2 was tested, and the “EC50 (read off the curve)” value [1] was ~2 nM and the binding result (EGF4+5) was “binds”.
